The text below walks through data of article PMC6167357 (2018).

“And” between values parts separate entries of the source, which are not always exact repeats. Equal values may be shown once.

In the assay the target is F-actin (Sus scrofa). As to the kind of experiment: co-sedimentation.

B1: titin N2A Ig80-IS-Ig81-Ig82-Ig83 (protein)
chain: SIRVVEKTTATFIAKVGGDPIPNVKWTKGKWRQLNQGGRILIHQKGDEAKLEIRDTTKTDSGLYRCVAFNKHGEIESNVNLQVDERKKQEKIEGDLRAMLKKTPALKKGSGEEEEIDIMELLKNVDPKEYEKYARMYGITDFRGLLQAFELLKQSQEEETHRLEIEELEKSERDEKEFEELVAFIQQRLTQTEPVTLIKDIENQTVLKDNDAIFEIDIKINYPEIKLSWYKGTEKLEPSNKYEISIDGDRHTLRVKNCQPKDQGNYRLVCGPHIASAKLTVIEPAWERHLQDVTLKEGQTCTMTCQFSVPNVKSEWFRNGRVLKPQGRVKTEVEHKVHKLTIADVRAEDQGQYTCKHEDLETSAELRIEAEPIQFTKRIQNIVVSEHQSATFECEVSFDDAIVTWYKGPTELTESQKYNFRNDGRCHYMTIHNVTPDDEGVYSVIARLEPRGEARSTAELYLTTKEIKLEMKPPDIPDSRVPIPTMPIRAVPPEEIPPAVAPSIPLLLPLP
A word on the Kd: it is the equilibrium constant for the complex coming apart. Lower therefore signals tighter binding. Consider B1, for which the dissociation constant Kd was ~17 µM and ~7 µM.
